Reference: patent US20230074436A1 (DENALI THERAPEUTICS, published 2023)
No end group written: not given here. *: point of attachment. Biotin = O=C1N[C@H]2[C@H](CS[C@H]2CCCCC(=O)*)N1

Legend:
[1] = molecular target: T1, alpha-synuclein peptide 1-61 (human); assay: peptide ELISA
T1 construct: synthetic peptide coated on plate
Description: (§1) 96-well Nunc plates were coated with 1 pg/mL of the indicated synthetic peptide in PBS 50 μL/well overnight. The plates were washed three times with PBST, then blocked with 150 μL of 3% BSA in PBS for 1 hour. Purified antibody was diluted by serial dilution methods, from 10 pg/mL to 0.6 ng/ml, and 50 μL of the antibody solution was added to the peptide-coated wells. The plates were incubated for 1 hour at room temperature, then washed three times with PBST. Secondary detection antibody, goat anti-rat HRP (obtained from Southern Biotech) 1:5,000 diluted in BSA-PBS, was added to a concentration of 50 μL/well. Plates were incubated for one hour and washed three times with PBST. Plates were then developed with 50 μL/well of TMB substrate (obtained from Thermo Fisher) and quenched with 50 μL/well of 1 N sulfuric acid. The signal was quantified on a BioTek® plate reader at A450.

[2] = molecular target: T2, alpha-synuclein peptide 1-95 (human); assay: peptide ELISA
T2 construct: synthetic peptide coated on plate
Description: as §1

[3] = molecular target: alpha-synuclein peptide 1-112 (human); assay: peptide ELISA
Description: as §1

asyn_113-127 [4] = molecular target: T3, asyn_113-127 (human); assay: Ala-scan peptide ELISA, row F, run 2
T3 construct: also called pep1
T3 peptide: Biotin-LEDMPVDPDNEAYEM
Description: (§2) 96-well Nunc plates were coated with 50 μL per well of 1 μg/mL streptavidin (from Jackson Immuno Research Laboratory) in PBS at 4° C. overnight. The plates were washed three times with PBST, and blocked with PBS containing 3% BSA at room temperature for 1 hour. The N-terminal biotinylated peptides were dissolved in Milli Q water to a concentration of 2 mg/mL, then further diluted to a concentration of 2 μg/mL with PBS. 50 μl of the diluted peptide was applied to the streptavidin-coated plates and incubated at 4° C. overnight. 2 μg/mL of biotinylated human alpha-synuclein was used as the positive control. The plates were washed three times with PBST before use. Purified antibody was diluted by serial dilution methods, from 20 μg/mL to 1 ng/mL, and 50 μL of the antibody solution was added to the peptide-coated wells. The plates were incubated for 1 hour at room temperature, then washed three times with PBST. Secondary detection antibody (goat anti-rat HRP (obtained from Southern Biotech)) was added with 1:5,000 dilutions and incubated for 1 hour at room temperature, then washed three times with PBST. Plates were developed with 50 μL/well of TMB substrate (Thermo Fisher) and quenched with 50 μL/well of 1 N sulfuric acid. The signal was quantified on a BioTek® plate reader at A450. A parallel repeat was performed for each peptide in a separate plate.

asyn_113-127_115A [5] = molecular target: T4, asyn_113-127_115A (human); assay: Ala-scan peptide ELISA, row F, run 2
T4 construct: substitution is already in the entry; also called pep4
T4 peptide: Biotin-LEAMPVDPDNEAYEM
Description: as §2

asyn_113-127_121A [6] = molecular target: T5, asyn_113-127_121A (human); assay: Ala-scan peptide ELISA, row F, run 2
T5 construct: substitution is already in the entry; also called pep10
T5 peptide: Biotin-LEDMPVDPANEAYEM
Description: as §2

asyn_113-127_124G [7] = molecular target: T6, asyn_113-127_124G (human); assay: Ala-scan peptide ELISA, row F, run 2
T6 construct: substitution is already in the entry; also called pep13
T6 peptide: Biotin-LEDMPVDPDNEGYEM
Description: as §2

asyn_113-127_126A [8] = molecular target: T7, asyn_113-127_126A (human); assay: Ala-scan peptide ELISA, row F, run 2
T7 construct: substitution is already in the entry; also called pep16
T7 peptide: Biotin-LEDMPVDPDNEAYAM
Description: as §2

[9] = molecular target: T8, biotinylated human alpha-synuclein (human, UniProt P37840 1-140); assay: Ala-scan peptide ELISA, row F, run 2
Description: as §2

asyn_113-127 [10] = molecular target: T3, asyn_113-127; assay: Ala-scan peptide ELISA, row H, run 2
Description: as §2

asyn_113-127_113A = molecular target: T9, asyn_113-127_113A (human); assay: Ala-scan peptide ELISA, row H, run 2
T9 construct: substitution is already in the entry; also called pep2
T9 peptide: Biotin-AEDMPVDPDNEAYEM
Description: as §2

asyn_113-127_114A = molecular target: T10, asyn_113-127_114A (human); assay: Ala-scan peptide ELISA, row H, run 2
T10 construct: substitution is already in the entry; also called pep3
T10 peptide: Biotin-LADMPVDPDNEAYEM
Description: as §2

asyn_113-127_115A [11] = molecular target: T4, asyn_113-127_115A; assay: Ala-scan peptide ELISA, row H, run 2
Description: as §2

asyn_113-127_116A = molecular target: T11, asyn_113-127_116A (human); assay: Ala-scan peptide ELISA, row H, run 2
T11 construct: substitution is already in the entry; also called pep5
T11 peptide: Biotin-LEDAPVDPDNEAYEM
Description: as §2

asyn_113-127_117A = molecular target: T12, asyn_113-127_117A (human); assay: Ala-scan peptide ELISA, row H, run 2
T12 construct: substitution is already in the entry; also called pep6
T12 peptide: Biotin-LEDMAVDPDNEAYEM
Description: as §2

asyn_113-127_118A = molecular target: T13, asyn_113-127_118A (human); assay: Ala-scan peptide ELISA, row H, run 2
T13 construct: substitution is already in the entry; also called pep7
T13 peptide: Biotin-LEDMPADPDNEAYEM
Description: as §2

asyn_113-127_119A = molecular target: T14, asyn_113-127_119A (human); assay: Ala-scan peptide ELISA, row H, run 2
T14 construct: substitution is already in the entry; also called pep8
T14 peptide: Biotin-LEDMPVAPDNEAYEM
Description: as §2

asyn_113-127_120A = molecular target: T15, asyn_113-127_120A (human); assay: Ala-scan peptide ELISA, row H, run 2
T15 construct: substitution is already in the entry; also called pep9
T15 peptide: Biotin-LEDMPVDADNEAYEM
Description: as §2

asyn_113-127_121A [12] = molecular target: T5, asyn_113-127_121A; assay: Ala-scan peptide ELISA, row H, run 2
Description: as §2

asyn_113-127_122A = molecular target: T16, asyn_113-127_122A (human); assay: Ala-scan peptide ELISA, row H, run 2
T16 construct: substitution is already in the entry; also called pep11
T16 peptide: Biotin-LEDMPVDPDAEAYEM
Description: as §2

asyn_113-127_123A = molecular target: T17, asyn_113-127_123A (human); assay: Ala-scan peptide ELISA, row H, run 2
T17 construct: substitution is already in the entry; also called pep12
T17 peptide: Biotin-LEDMPVDPDNAAYEM
Description: as §2

asyn_113-127_124G [13] = molecular target: T6, asyn_113-127_124G; assay: Ala-scan peptide ELISA, row H, run 2
Description: as §2

asyn_113-127_124P = molecular target: T18, asyn_113-127_124P (human); assay: Ala-scan peptide ELISA, row H, run 2
T18 construct: substitution is already in the entry; also called pep14
T18 peptide: Biotin-LEDMPVDPDNEPYEM
Description: as §2

asyn_113-127_125A = molecular target: T19, asyn_113-127_125A (human); assay: Ala-scan peptide ELISA, row H, run 2
T19 construct: substitution is already in the entry; also called pep15
T19 peptide: Biotin-LEDMPVDPDNEAAEM
Description: as §2

asyn_113-127_126A [14] = molecular target: T7, asyn_113-127_126A; assay: Ala-scan peptide ELISA, row H, run 2
Description: as §2

asyn_113-127_127A = molecular target: T20, asyn_113-127_127A (human); assay: Ala-scan peptide ELISA, row H, run 2
T20 construct: substitution is already in the entry; also called pep17
T20 peptide: Biotin-LEDMPVDPDNEAYEA
Description: as §2

[15] = molecular target: T8, biotinylated human alpha-synuclein; assay: Ala-scan peptide ELISA, row H, run 2
Description: as §2

[16] = molecular target: human alpha-synuclein monomer (human, UniProt P37840 1-140); assay: direct ELISA, plate coated with 1 µg/mL recombinant human alpha-synuclein, antibody titrated, anti-rat HRP, A450
Description: 96-well Nunc plates were coated with 50 μL of recombinant human, mouse, or rat alpha-synuclein at a concentration of 1 μg/mL in PBS at 4° C. overnight. The plates were then washed three times with PBST and blocked with PBS containing 3% BSA at room temperature for 1 hour. Purified antibody was diluted by serial dilution methods, from 10 μg/mL to 0.6 ng/mL, and 50 μL of the antibody solution was added to the alpha-synuclein-coated wells. The plates were incubated for 1 hour at room temperature, then washed three times with PBST. Secondary detection antibody (goat anti-rat HRP (obtained from Southern Biotech)) was added 50 μL/well, 1:5,000 diluted in BSA-PBS solution. Plates were incubated for 1 hour at room temperature, then washed three times with PBST. Plates were subsequently developed with 50 μL/well of TMB substrate (Thermo Fisher) and quenched with 50 μL/well of 1 N sulfuric acid. The signal was quantified on a BioTek® plate reader at A450.

B1: 20H4 (antibody, rat IgG2b, V domains shown)
VH: AVQLVESGGGLVQPKESLKISCAASGFTFSNAAMYWVRQAPGKGLELLARIRTKPNNYATYHADSVKGRFTISRDDSQSMVYLHMGNLKTEDTAMYYCTADMATGDYWGPGVMVTVSS
VL: DIQMTQSPPVLSVSVGDRVTLSCKASQNINKNLDWYQQKHGEAPKPLIYSTNNLQTGVPSRFSGSGSGTDYTLTISSLQPEDVATYYCYQYKSAWTFGGGTKLELR
notes: also called clone 20H4; rat 20H4
B1 was tested. Which “antibody concentration at which ELISA is positive” value (“antibody concentration” for short) [1] did it give?
Its value is > 2600 ng/mL.

What about the “antibody concentration” value [2] of the same binder?
Its value is > 2600 ng/mL.

What about the “antibody concentration” value [3] of the same binder?
Its value is > 2600 ng/mL.

And the A450 (asyn_113-127 [4])?
The A450 was 0.148 OD.

What about the A450 (asyn_113-127_115A [5]) of the same binder?
The A450 was 0.075 OD.

And the A450 (asyn_113-127_121A [6])?
Its A450 is 0.143 OD.

What about the A450 (asyn_113-127_124G [7]) of the same binder?
Its A450 is 0.133 OD.

What about the A450 (asyn_113-127_126A [8]) of the same binder?
The A450 was 0.169 OD.

What about the A450 [9] of the same binder?
The A450 was 0.284 OD.

What about the A450 (asyn_113-127 [10]) of the same binder?
Its A450 is 0.064 OD.

And the A450 (asyn_113-127_113A)?
Its A450 is 0.066 OD.

And the A450 (asyn_113-127_114A)?
Its A450 is 0.066 OD.

And the A450 (asyn_113-127_115A [11])?
Its A450 is 0.052 OD.

And the A450 (asyn_113-127_116A)?
The A450 was 0.073 OD.

What about the A450 (asyn_113-127_117A) of the same binder?
Its A450 is 0.083 OD.

And the A450 (asyn_113-127_118A)?
The A450 was 0.071 OD.

What about the A450 (asyn_113-127_119A) of the same binder?
Its A450 is 0.046 OD.

What about the A450 (asyn_113-127_120A) of the same binder?
The A450 was 0.057 OD.

What about the A450 (asyn_113-127_121A [12]) of the same binder?
The A450 was 0.069 OD.

What about the A450 (asyn_113-127_122A) of the same binder?
Its A450 is 0.051 OD.

What about the A450 (asyn_113-127_123A) of the same binder?
Its A450 is 0.068 OD.

And the A450 (asyn_113-127_124G [13])?
The A450 was 0.066 OD.

And the A450 (asyn_113-127_124P)?
Its A450 is 0.046 OD.

And the A450 (asyn_113-127_125A)?
The A450 was 0.049 OD.

What about the A450 (asyn_113-127_126A [14]) of the same binder?
The A450 was 0.073 OD.

What about the A450 (asyn_113-127_127A) of the same binder?
The A450 was 0.066 OD.

What about the A450 [15] of the same binder?
Its A450 is 0.087 OD.

And the “EC50 (read off the curve)” value [16]?
The value was ~0.2 µg/mL.
